Drawing on PMC3702667, this text covers stoichiometry N and Kd for two substances.

The target of test [1] is RECQL5 KIX domain (RECQL5_(515–620)) (human) (UniProt O94762). Kind of test: SAXS.
For test [2] the target is unchanged. Description: crystal structure.
The target in test [3] is Fluorescently labeled RECQL5_(1–620) (human) (UniProt O94762). Description: native gel or EMSA. A general note: In EMSA bound probe runs differently from free probe, usually more slowly.

In general, stoichiometry N refers to the number of molecules, sites or subunits per partner or assembly. In general, Kd refers to the concentration at which binding is half-saturated. Read a low Kd as a tighter complex.

Fluorescently labeled RECQL5_(1–620) (human), sequence (O94762 1-620): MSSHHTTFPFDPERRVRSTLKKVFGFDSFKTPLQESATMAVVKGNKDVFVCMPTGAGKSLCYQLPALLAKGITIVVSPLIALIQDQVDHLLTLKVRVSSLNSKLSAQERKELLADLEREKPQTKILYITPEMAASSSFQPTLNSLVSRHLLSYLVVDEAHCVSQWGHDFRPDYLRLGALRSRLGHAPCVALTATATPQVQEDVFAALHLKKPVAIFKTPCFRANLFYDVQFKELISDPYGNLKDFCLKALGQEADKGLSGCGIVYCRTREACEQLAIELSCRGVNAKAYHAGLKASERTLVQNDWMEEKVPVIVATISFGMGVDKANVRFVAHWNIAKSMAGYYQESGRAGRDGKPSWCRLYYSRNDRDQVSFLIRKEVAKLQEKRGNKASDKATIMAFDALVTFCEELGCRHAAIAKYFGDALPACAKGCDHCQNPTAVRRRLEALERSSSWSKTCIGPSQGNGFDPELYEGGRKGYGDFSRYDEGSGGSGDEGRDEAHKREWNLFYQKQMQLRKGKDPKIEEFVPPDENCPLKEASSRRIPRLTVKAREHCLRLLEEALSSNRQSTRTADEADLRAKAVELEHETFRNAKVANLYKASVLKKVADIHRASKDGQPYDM

Consider “RECQL5 KIX domain (RECQL5_(515–620)) (from UniProt O94762 515-620) (domain or fragment)”, for which the stoichiometry N in test [1] and in test [2] was 2 throughout.

With “human RNA polymerase II (from UniProt P24928;P30876) (complex)”, in test [3], the dissociation constant (Kd) turned out to be 40 nM.
